Two molecules from patent US20140155325A1 (Janssen / Centocor, published 2014) can be followed below.

In experiment [1] the target is T1, human EGFR (epidermal growth factor receptor) on cells (human, UniProt P00533 25-1210). The experiment in a line: cell-based or functional assay.
In experiment [2] the target is T1, human EGFR (epidermal growth factor …). The experiment in a line: cell-based or functional assay. This is another data set of the same source.
For experiment [3] the target is unchanged. The experiment in a line: cell-based or functional assay. This is another data set of the same source.
The target is the same in experiment [4]. The experiment in a line: A431 cell binding, anti-His-Alexa488.
The target in experiment [5] is T2, recombinant human extracellular domain of EGFR fused to an IgG1 Fc (human, UniProt P00533 25-645).
T2 construct: Bought from R&D Systems; captured on anti-human Fc IgG in the SPR assays; also called EGFR-Fc; recombinant EGFR extracellular domain; not shown: IgG1 Fc of the bought fusion protein (R&D Systems)
The experiment in a line: SPR (ProteOn), EGFR-Fc captured by anti-human Fc. As for the experimental part: Select EGFR-binding FN3 domains were screened to identify those with slow off-rates (koff) in binding to EGFR-Fc on a ProteOn XPR-36 instrument (Bio-Rad) to facilitate selection of high affinity binders. Goat anti-human Fc IgG (R&D systems), at a concentration of 5 μg/mL, was directly immobilized via amine coupling (at pH 5.0) on all 6 ligand channels in horizontal orientation on the chip with a flow rate of 30 μL/min in PBS containing 0.005% Tween-20. The immobilization densities averaged about 1500 Response Units (RU) with less than 5% variation among different channels. EGFR-Fc was captured on the anti-human Fc IgG surface to a density around 600 RU in vertical ligand orientation. All tested FN3 domains were normalized to a concentration of 1 μM and tested for their binding in horizontal orientation. All 6 analyte channels were used for the FN3 domains to maximize screening throughput. The dissociation phase was monitored for 10 minutes at a flow rate of 100 μL/min. The inter-spot binding signals were used as references to monitor non-specific binding between analytes and the immobilized IgG surface, and were subtracted from all binding responses. […]
Binding affinity of selected EGFR-binding FN3 domains to recombinant EGFR extracellular domain was further characterized by surface Plasmon resonance methods using a Proteon Instrument (BioRad). […]

The target in experiment [6] is T1, human EGFR (epidermal growth factor …). The experiment in a line: A431 cell EGF competition (biotinylated EGF).
The target is the same in experiment [7]. The experiment in a line: cell-based or functional assay. The source holds these as a separate data set.

B1: P53A1R5-17 (designed binder, not shown: small tags and cut ends)
chain: LPAPKNLVVSEVTEDSLRLSWADPHGFYDSFLIQYQESEKVGEAINLTVPGSERSYDLTGLKPGTEYTVSIYGVHNVYKDTNMRGLPLSAEFTT
With B1, the “IC50, inhibition of EGF-stimulated EGFR phosphorylation (relative pEGFR, RCLU) in H292 cells, +50 ng/mL EGF [+50ng/mL EGF), IC50 table]” value in experiment [1] came out at 151 nM. The “IC50, inhibition of EGF-stimulated EGFR phosphorylation (relative pEGFR, RCLU) in H596 cells, +2.5 ng/mL EGF [+2.5ng/mL EGF), IC50 table]” value in experiment [2] was determined as 35.4 nM. The “IC50, inhibition of EGF-stimulated EGFR phosphorylation (relative pEGFR, RCLU) in H441 cells, +10 ng/mL EGF [+10ng/mL EGF), IC50 table]” value in experiment [3] is 70.2 nM.

B2: P54AR4-47 (designed binder)
chain: LPAPKNLVVSEVTEDSLRLSWWDPFSFYDSFLIQYQESEKVGEAINLTVPGSERSYDLTGLKPGTEYTVSIYGVHNVYKDTNMRGLPLSAEFTT
Turning to B2, it took 8.6 nM to reach a half-maximal effect in experiment [4] (EC50). Besides, the Kd – broadly, a measure of binding affinity in units of concentration – in experiment [5] worked out at 2.51 nM. For the same molecule, the IC50 (commonly the midpoint of a concentration-inhibition curve) in experiment [6] was found to be 7.1 nM. In experiment [7], the “NCI-H292 Growth IC50” value was 44 nM; the “NCI-H322 Growth IC50” value was determined as 39 nM; the “Phospho-EGFR IC50 (EGF-stimulated, A431 cells)” value came to 295 nM.
